{
  "source": "paper PMC7896505",
  "about": "“Expression, purification, crystallization and preliminary X-ray crystallographic studies of a mitochondrial membrane-associated protein Cbs2 from Saccharomyces cerevisiae” (PeerJ, 2021)",
  "proteins": {"B1": {"name": "Cbs2 from Saccharomyces cerevisiae (natural protein, S. cerevisiae, UniProt P14905 1-389, looked up)", "chain": "MSSSIPRVYSLGNSAMTYLLALRIAQLPSQPKVPSVVLLLNDQKKLNRFLNNDSKIIVKSSNNNKETYHRQFMASCVPPILSNGEIAPIENLIVSDPSSKFITAQLSKYNKSLRPETNILFLNPSLNLLEHLHRYRWRFDEARPNLFMGFTTPVDVGTIHQEFQLSLKVKGRIQFHIAKIDGFPRMSSTGKSASLSLRGDRQKNEKENNAFYKLFREISRLRSGIGSDLVSFDLHVHGFQDLFFTELEKLILESCTEPLLAVYDCVYKKELLKIPGAQDIIKKLISEQLSIIDRSYPSLNTNPNYSVIFDKERIFSLVMRDLEVNGHKRAKLAQSLNQLNQTNINELNGFFVSLGKYKKCNCKWNDILLTLIKGKQFITKQKALDYHYL", "notes": "389 amino acids; The selenomethionine derivative (Se-Cbs2) was used only for crystallization; also called recombinant Cbs2; Cbs2-His tag; source: E. coli C43 (DE3), purified (Ni-NTA, Hitrap Q anion exchange, Superdex 200 gel filtration)"}},
  "molecular_target": "the molecule itself",
  "test": "SEC; Superdex 200 10/300 in buffer G (20 mM Tris-HCl pH 7.5, 100 mM NaCl, 2 mM DTT); molecular weight from a calibration curve (Gel Filtration Calibration Kits HMW and LMW); peak at approximately 90 KDa against about 44 KDa on SDS-PAGE",
  "data": [
    {"protein": "B1", "values": [
      {"measurement": "stoichiometry N", "result": 2}
    ]}
  ]
}
